The values that follow are results of earlier work, collected in paper PMC8239176.

The term Kd denotes a measure of binding affinity in units of concentration.

The data set addresses KLC1 (Homo sapiens) (UniProt Q07866).
Chain of UniProt Q07866 (Q07866 whole entry): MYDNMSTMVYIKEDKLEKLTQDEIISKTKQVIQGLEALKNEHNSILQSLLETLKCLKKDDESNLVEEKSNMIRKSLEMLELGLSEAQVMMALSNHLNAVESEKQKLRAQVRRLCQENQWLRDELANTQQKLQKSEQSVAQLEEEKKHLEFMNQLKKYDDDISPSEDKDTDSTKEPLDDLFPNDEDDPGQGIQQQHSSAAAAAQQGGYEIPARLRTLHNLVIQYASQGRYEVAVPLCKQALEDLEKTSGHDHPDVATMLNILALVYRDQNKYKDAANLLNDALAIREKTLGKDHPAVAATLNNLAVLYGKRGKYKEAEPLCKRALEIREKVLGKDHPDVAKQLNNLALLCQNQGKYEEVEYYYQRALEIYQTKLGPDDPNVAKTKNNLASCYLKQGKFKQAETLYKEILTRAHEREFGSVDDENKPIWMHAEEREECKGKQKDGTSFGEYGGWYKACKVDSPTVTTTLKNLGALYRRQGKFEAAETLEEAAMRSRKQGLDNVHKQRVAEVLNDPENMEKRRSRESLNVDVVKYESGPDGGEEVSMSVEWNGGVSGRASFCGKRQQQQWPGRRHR

For SFPQ (from UniProt P23246), the Kd is 3.8 µM.
